B1: EDARADD (parent)
chain: VEKVLRRWVDEEWPKRERGDPSRH

Variants of: B1
Assay: protein stability index of a GFP-peptide fusion (GPS, HEK-293T) (PSI 1-6); higher = more stable
Details: c terminus: a fixed tail appended
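Further: lentivirally expressed fusions sorted by FACS into six bins by GFP to DsRed ratio, PSI derived from sequencing read proportions per bin multiplied by bin number.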

Protein stability index: each site, then its substitutions
R16: Q 2.1; P 3; V 2.49; Y 2.14; S 2.58; E 3.66; F 2.46; K 2.48; M 2.7; T 3.46; A 3.55; N 3.62; L 2.69; C 2.67; D 2.83; I 3.77
D20: E 2.63; C 2.31; H 2.81; M 2.21; A 3.45; I 2.19; Q 2.5; G 2.81; F 2.35; P 2.04; N 2.94; L 2.5; K 3.07
E11: R 1.59; T 2.61; V 1.88; Y 2.09; Q 3.05; W 1.96; M 1.74; N 3.19; P 2.2; S 2.71; K 2.08
E17: R 2.85; K 2.96; D 3.53; Q 2.99; C 2.26; A 3.43; W 1.83; P 1.68; L 2.7; Y 2.55; N 2.84; T 2.45; I 2.19; M 2.97; H 3.27; S 2.44; V 1.96; G 3.32; F 2.01
E12: C 2.28; R 3.4; G 2.81; F 1.78; M 2.08; Y 1.81; D 2.45; N 1.92; T 2.27; A 1.87; S 2.36; P 2.4; H 1.99; W 1.54; K 2.66; I 2.06; Q 1.95; V 2.12
G19: M 2.54; S 2.8; F 2.05; I 2.6; N 2.41; D 3.1; E 3.14; V 2.11; P 2.89; K 2.79; W 2.1; Q 2.73; H 3.06; Y 2.21; L 2.37; T 2.55; R 2.64; C 2.52
W13: D 3; C 3.21; L 3.38; H 4; E 3.75; N 3.86; T 3.38; V 3.98; F 2.01; I 3.35; Q 3.94; G 4.24; S 3.54; M 2.62; P 3.75; Y 2.79; R 3.96; A 3.42
P14: S 2.59; A 2.31; K 2.82; F 2.14; E 2.05; L 2.13; N 2.8; Y 2.32; C 3.5; D 2.39; V 2.92; W 2.38; M 2.62; G 2.22; R 3.06; T 2.49
K15: S 3.33; Y 2.31; C 3.18; P 3.58; L 2.41; M 2.97; V 2.29; H 3.55; T 3.51; W 1.71; G 3.44; Q 2.24; D 3.17; N 2.25; A 2.72; I 2.82; F 2.74; R 2.42; E 3.96
R18: V 2.99; E 3.73; P 3.34; G 3.58; S 2.83; C 2.91; Y 2.44; I 3.12; N 3.22; D 3.18; H 3.18; A 2.29; M 3.15; F 2.5; W 2.64; T 2.96; L 2.81; Q 3.53; K 1.81

Source: the supplement of paper PMC10567573
